Experimental data published in patent publication US20200024330A1.

Tests used:
[1] = molecular target: HIV-1 JR-CSF Env W395A (HIV-1 (isolate JR-CSF)) (UniProt P20871); assay: cell-based or functional assay
[2] = molecular target: HIV-1 JR-CSF Env D325A (HIV-1 isolate JR-CSF) (UniProt P20871); assay: cell-based or functional assay
[3] = molecular target: HIV-1 JR-CSF Env N411A (HIV-1 (isolate JR-CSF)) (UniProt P20871); assay: cell-based or functional assay
[4] = molecular target: HIV-1 JR-CSF Env S306A (HIV-1 JR-CSF) (UniProt P20871); assay: cell-based or functional assay
[5] = molecular target: HIV-1 JR-CSF Env H330A (HIV-1 isolate JR-CSF) (UniProt P20871); assay: cell-based or functional assay
[6] = molecular target: HIV-1 JR-CSF Env N386A (HIV-1 isolate JR-CSF) (UniProt P20871); assay: cell-based or functional assay
[7] = molecular target: HIV-1 Env of isolate 92WR009 (HIV-1); assay: cell-based or functional assay
[8] = molecular target: HIV-1 Env of isolate MGRM-A-007 (HIV-1); assay: cell-based or functional assay
[9] = molecular target: HIV-1 JR-CSF Env R350A (HIV-1 isolate JR-CSF) (UniProt P20871); assay: cell-based or functional assay
[10] = molecular target: Env of the clade D HIV-1 pseudoviruses of the cross-clade 162-pseudovirus panel (n = 25); assay: cell-based or functional assay
[11] = molecular target: HIV-1 JR-CSF Env T297A (HIV-1 JR-CSF) (UniProt P20871); assay: cell-based or functional assay
[12] = molecular target: HIV-1 JR-CSF Env S199A (HIV-1 JR-CSF) (UniProt P20871); assay: cell-based or functional assay
[13] = molecular target: HIV-1 Env of isolate 94UG103 (HIV-1); assay: cell-based or functional assay
[14] = molecular target: HIV-1 Env of isolate MGRM-A-010 (HIV-1); assay: cell-based or functional assay
[15] = molecular target: HIV-1 JR-CSF Env N295A (HIV-1 JR-CSF) (UniProt P20871); assay: cell-based or functional assay
[16] = molecular target: HIV-1 JR-CSF Env P299A (HIV-1 JR-CSF) (UniProt P20871); assay: cell-based or functional assay
[17] = molecular target: HIV-1 JR-CSF Env T303A (HIV-1 JR-CSF) (UniProt P20871); assay: cell-based or functional assay
[18] = molecular target: HIV-1 JR-CSF Env I323A (HIV-1 isolate JR-CSF) (UniProt P20871); assay: cell-based or functional assay
[19] = molecular target: HIV-1 Env of isolate MGRM-A-002 (HIV-1); assay: cell-based or functional assay
[20] = molecular target: HIV-1 JR-CSF Env R315A (HIV-1 isolate JR-CSF) (UniProt P20871); assay: cell-based or functional assay
[21] = molecular target: HIV-1 JR-CSF Env I420A (HIV-1 (isolate JR-CSF)) (UniProt P20871); assay: cell-based or functional assay
[22] = molecular target: HIV-1 Env of isolate 92RW008 (HIV-1); assay: cell-based or functional assay
[23] = molecular target: HIV-1 JR-CSF Env P313A (HIV-1 JR-CSF) (UniProt P20871); assay: cell-based or functional assay
[24] = molecular target: HIV-1 JR-CSF Env I326A (HIV-1 isolate JR-CSF) (UniProt P20871); assay: cell-based or functional assay
[25] = molecular target: HIV-1 JR-CSF Env T394A (HIV-1 (isolate JR-CSF)) (UniProt P20871); assay: cell-based or functional assay
[26] = molecular target: HIV-1 JR-CSF Env N396A (HIV-1 (isolate JR-CSF)) (UniProt P20871); assay: cell-based or functional assay
[27] = molecular target: Env of the clade G HIV-1 pseudoviruses of the cross-clade 162-pseudovirus panel (n = 15); assay: cell-based or functional assay
[28] = molecular target: HIV-1 JR-CSF Env T320A (HIV-1 isolate JR-CSF) (UniProt P20871); assay: cell-based or functional assay
[29] = molecular target: HIV-1 Env of isolate CMU02 (HIV-1); assay: cell-based or functional assay
[30] = molecular target: HIV-1 JR-CSF Env K343A (HIV-1 isolate JR-CSF) (UniProt P20871); assay: cell-based or functional assay
[31] = molecular target: HIV-1 Env of isolate 92WR021 (HIV-1); assay: cell-based or functional assay
[32] = molecular target: HIV-1 Env of isolate MGRM-C-026 (HIV-1); assay: cell-based or functional assay
[33] = molecular target: HIV-1 JR-CSF Env I309A (HIV-1 JR-CSF) (UniProt P20871); assay: cell-based or functional assay
[34] = molecular target: HIV-1 JR-CSF Env N276A (HIV-1 JR-CSF) (UniProt P20871); assay: cell-based or functional assay
[35] = molecular target: HIV-1 JR-CSF Env T202A (HIV-1 JR-CSF) (UniProt P20871); assay: cell-based or functional assay
[36] = molecular target: HIV-1 JR-CSF Env I307A (HIV-1 JR-CSF) (UniProt P20871); assay: cell-based or functional assay
[37] = molecular target: HIV-1 JR-CSF Env S334A (HIV-1 isolate JR-CSF) (UniProt P20871); assay: cell-based or functional assay
[38] = molecular target: JR-FL gp120 ΔV1/ΔV2 (HIV-1 (isolate JR-FL)); assay: ELISA on coated gp120; EC50 by nonlinear regression
[39] = molecular target: WT JR-FL gp120 (HIV-1 (isolate JR-FL)); assay: as above

B1: PGT-127 (antibody, V domains shown)
VH: QPQLQESGPGLVEASETLSLTCTVSGDSTGRCNYFWGWVRQPPGKGLEWIGSLSHCRSYYNTDWTYHNPSLKSRLTISLDTPKNQVFLRLTSVTAADTATYYCARFGGEVLVYRDWPKPAWVDLWGRGTLVVTVS
VL: QSALTQPPSASGSPGQSITISCTGTSNNFVSWYQQYPGKAPKLVIYEVNKRPSGVPDRFSGSKSGSTASLTVSGLQADDEGVYYCSSLVGNWDVIFGGGTKLTVL
Binder B1 has a Fold IC50 increase relative to wild-type [1] of 1.6 fold, a Fold IC50 increase relative to wild-type [2] of 0.93 fold and a Fold IC50 increase relative to wild-type [3] of 0.8 fold. For the same binder, the Fold IC50 increase relative to wild-type [4] was 0.6 fold, the Fold IC50 increase relative to wild-type [5] was 0.5 fold and the Fold IC50 increase relative to wild-type [6] was 0.6 fold. It also gave an IC50 (µg/mL), pseudovirus neutralization [7] greater than 50 µg/mL, an IC50 (µg/mL), pseudovirus neutralization [8] greater than 50 µg/mL and a Fold IC50 increase relative to wild-type [9] of 1.1 fold. It also gave a Median IC50 against viruses neutralized with an IC50 <50 µg/ml [10] of 0.49 µg/mL, a Fold IC50 increase relative to wild-type [11] of 1.7 fold and a Fold IC50 increase relative to wild-type [12] of 3 fold. For the same binder, the IC50 (µg/mL), pseudovirus neutralization [13] was 0.017 µg/mL, the IC50 (µg/mL), pseudovirus neutralization [14] was 0.017 µg/mL and the Fold IC50 increase relative to wild-type [15] was 2.3 fold. The Fold IC50 increase relative to wild-type [16] was 0.2 fold, the Fold IC50 increase relative to wild-type [17] was greater than 500 fold and the Fold IC50 increase relative to wild-type [18] was 4 fold. The IC50 (µg/mL), pseudovirus neutralization [19] was 9.42 µg/mL, the Fold IC50 increase relative to wild-type [20] was 0.3 fold and the Fold IC50 increase relative to wild-type [21] was 1.8 fold. The IC50 (µg/mL), pseudovirus neutralization [22] was 0.012 µg/mL, the Fold IC50 increase relative to wild-type [23] was 1.3 fold and the Fold IC50 increase relative to wild-type [24] was 3.5 fold. It also gave a Fold IC50 increase relative to wild-type [25] of 1.6 fold, a Fold IC50 increase relative to wild-type [26] of 2.4 fold and a Median IC50 against viruses neutralized with an IC50 <50 µg/ml [27] of 0.22 µg/mL. For the same binder, the Fold IC50 increase relative to wild-type [28] was 1.8 fold, the IC50 (µg/mL), pseudovirus neutralization [29] was greater than 50 µg/mL and the Fold IC50 increase relative to wild-type [30] was 1 fold. The IC50 (µg/mL), pseudovirus neutralization [31] was 0.011 µg/mL, the Polyclonal Transfectant Neutralization Index (well 5145 B14) [32] was 2.62 and the Primary Neutralization Index (B cell culture well 5145 B14) [32] was 86.9. The Fold IC50 increase relative to wild-type [33] was 6 fold, the Fold IC50 increase relative to wild-type [34] was 1.6 fold and the Fold IC50 increase relative to wild-type [35] was 1.8 fold. It also gave a Fold IC50 increase relative to wild-type [36] of 10.2 fold, a Fold IC50 increase relative to wild-type [37] greater than 500 fold and an EC50 [38] of 0.7 µg/mL. For the same binder, the EC50 [39] was 0.1 µg/mL.
